Literature values, collected in PMC11409674, “Raffinocyclicin is a novel plasmid-encoded circular bacteriocin produced by Lactococcus raffinolactis with broad-spectrum activity against many gram-positive food pathogens” (Applied and environmental microbiology, 2024).

Experiments:
L. lactis = tested on: L. lactis; set-up: method as in 7 sources, ref 29 = [29]; PMID 18552180; doi:10.1128/AEM.00817-08; 29 Martin-Visscher LA van Belkum MJ Garneau-Tsodikova S Whittal RM Zheng J McMullen LM Vederas JC Isolation and characterization of carnocyclin A, a novel circular bacteriocin produced by Carnobacteri ||| ref 30 = [30]; PMID 29177092; doi:10.1099/mgen.0.000134; 30 van Heel AJ Montalban-Lopez M Oliveau Q Kuipers OP Genome-guided identification of novel head-to-tail cyclized antimicrobial peptides, exemplified by the discovery of pumilarin Microb Genom 2017 3 ||| ref 31 = [31]; PMID 29030449; doi:10.1128/AEM.01801-17; 31 Borrero J Kelly E O’Connor PM Kelleher P Scully C Cotter PD Mahony J van Sinderen D Plantaricyclin a, a novel circular bacteriocin produced by Lactobacillus plantarum NI326: purification, character ||| ref 32 = [32]; PMID 17464077; doi:10.1099/mic.0.2006/005967-0; 32 Wirawan RE Swanson KM Kleffmann T Jack RW Tagg JR Uberolysin: a novel cyclic bacteriocin produced by Streptococcus uberis Microbiology 2007 153 1619 1630 10.1099/mic.0.2006/005967-0 17464077 ||| ref 27 = [27]; PMID 21057028; doi:10.1128/AEM.01173-10; 27 Borrero J Brede DA Skaugen M Diep DB Herranz C Nes IF Cintas LM Hernández PE Characterization of garvicin ML, a novel circular bacteriocin produced by Lactococcus garvieae DCC43, isolated from mall ||| ...; settings: five strains of L. lactis; cited from earlier work
proteases = tested on: proteases; set-up: method as in 4 sources, ref 33 = [33]; PMID 21948835; doi:10.1128/AEM.06348-11; 33 Masuda Y Ono H Kitagawa H Ito H Mu F Sawa N Zendo T Sonomoto K Identification and characterization of leucocyclicin Q, a novel cyclic bacteriocin produced by Leuconostoc mesenteroides TK41401 Appl ||| ref 27 = [27]; PMID 21057028; doi:10.1128/AEM.01173-10; 27 Borrero J Brede DA Skaugen M Diep DB Herranz C Nes IF Cintas LM Hernández PE Characterization of garvicin ML, a novel circular bacteriocin produced by Lactococcus garvieae DCC43, isolated from mall ||| ref 30 = [30]; PMID 29177092; doi:10.1099/mgen.0.000134; 30 van Heel AJ Montalban-Lopez M Oliveau Q Kuipers OP Genome-guided identification of novel head-to-tail cyclized antimicrobial peptides, exemplified by the discovery of pumilarin Microb Genom 2017 3 ||| ref 29 = [29]; PMID 18552180; doi:10.1128/AEM.00817-08; 29 Martin-Visscher LA van Belkum MJ Garneau-Tsodikova S Whittal RM Zheng J McMullen LM Vederas JC Isolation and characterization of carnocyclin A, a novel circular bacteriocin produced by Carnobacteri; settings: cited from earlier work

## plantaricyclin A
L. lactis
  inhibition of L. lactis strains tested: inhibited all five strains

## garvicin ML
proteases
  sensitivity to proteolytic activity: resistant

## pumilarin
proteases
  sensitivity to proteolytic activity: low-sensitivity profile
